Source: the supplement of paper PMC11246515
± gives the standard deviation of the averaged measurements.

Test: total protein half-life in vivo (active degradation + dilution); higher = more stable protein
[1] = E. coli NCM3722 delta-clpP delta-lon delta-hslV, growth: N-lim chemostat, doubling time 6 h
[2] = E. coli NCM3722 delta-clpP, growth: N-lim chemostat, doubling time 6 h
[3] = E. coli NCM3722 delta-hslV, growth: N-lim chemostat, doubling time 6 h
[4] = E. coli NCM3722 delta-lon, growth: N-lim chemostat, doubling time 6 h
[5] = E. coli NCM3722 delta-smpB, growth: N-lim chemostat, doubling time 6 h
[6] = wild type E. coli NCM3722, growth: C-lim chemostat, doubling time 3 h
[7] = wild type E. coli NCM3722, growth: C-lim chemostat, doubling time 6 h
[8] = wild type E. coli NCM3722, growth: C-lim chemostat, doubling time 12 h
[9] = wild type E. coli NCM3722, growth: N-lim chemostat, doubling time 6 h
[10] = wild type E. coli NCM3722, growth: N-lim chemostat, doubling time 12 h
[11] = wild type E. coli NCM3722, growth: P-lim chemostat, doubling time 6 h
[12] = wild type E. coli NCM3722, growth: P-lim chemostat, doubling time 12 h

Sequence: MSELSQLSPQPLWDIFAKICSIPHPSYHEEQLAEYIVGWAKEKGFHVERDQVGNILIRKPATAGMENRKPVVLQAHLDMVPQKNNDTVHDFTKDPIQPYIDGEWVKARGTTLGADNGIGMASALAVLADENVVHGPLEVLLTMTEEAGMDGAFGLQGNWLQADILINTDSEEEGEIYMGCAGGIDFTSNLHLDREAVPAGFETFKLTLKGLKGGHSGGEIHVGLGNANKLLVRFLAGHAEELDLRLIDFNGGTLRNAIPREAFATIAVAADKVDVLKSLVNTYQEILKNELAEKEKNLALLLDSVANDKAALIAKSRDTFIRLLNATPNGVIRNSDVAKGVVETSLNVGVVTMTDNNVEIHCLIRSLIDSGKDYVVSMLDSLGKLAGAKTEAKGAYPGWQPDANSPVMHLVRETYQRLFNKTPNIQIIHAGLECGLFKKPYPEMDMVSIGPTITGPHSPDEQVHIESVGHYWTLLTELLKEIPAK
- total protein half-life in vivo [1]: 4.741 ± 0.0055 h
- total protein half-life in vivo [2]: 4.94 ± 0.75 h
- total protein half-life in vivo [3]: 5.28 ± 0.26 h
- total protein half-life in vivo [4]: 4.816 ± 0.018 h
- total protein half-life in vivo [5]: 4.53 ± 0.12 h
- total protein half-life in vivo [6]: 3.09 ± 0.14 h
- total protein half-life in vivo [7]: 5.61 ± 0.4 h
- total protein half-life in vivo [8]: 11.1 ± 0.36 h
- total protein half-life in vivo [9]: 4.81 ± 0.18 h
- total protein half-life in vivo [10]: 8.14 ± 0.0087 h
- total protein half-life in vivo [11]: 5.88 ± 0.37 h
- total protein half-life in vivo [12]: 13.7 ± 3.1 h

Sequence: MSELTDLLLQGPRSAPELRQRLAISQATFSRLVAREDRVIRFGKARATRYALLRPYRGIERIPVWRVDDTGKAHKFADIRLCWPQGSCLVTGADGDEQWFDGLPWYLTDLRPQGFLGRAWGRKLAAQLNLTDDIRLWQEEDVLYALTVFNGEYTGGWLVGEGNYQRWITAQHPAEIPLDQKLTHYEQLASDALAGEIVGSSAGGEQPKFTYYAQTPSGNKHVLVKFTVPQQTAVSQRWGDLLIAESIAAQILRDGGIHAIESTVLVTSNRQVFLEAERFDCKGNDGRLPIVSLEAVQSEFISSPGSWPQAMRRLCEQQLVTHQSVAQTEVIWAFGRLIANSDMHAGNLSFYLSEPPFALTPVYDMLPMVYAPNSAGMLRDAAIEVKFDLNVSKSAWLTAIPLAQQFWQTVARDPRISEAFRHIAQEMPEKIRQIEEKVARMGG
- total protein half-life in vivo [2]: 5.39 ± 0.31 h
- total protein half-life in vivo [4]: 5.71 ± 0.22 h
- total protein half-life in vivo [5]: 4.46 ± 0.29 h
- total protein half-life in vivo [6]: 2.95 ± 0.45 h
- total protein half-life in vivo [7]: 5.9 ± 1.3 h
- total protein half-life in vivo [8]: 10.9 ± 0.43 h
- total protein half-life in vivo [9]: 4.54 ± 0.54 h
- total protein half-life in vivo [10]: 9.16 ± 2.6 h
- total protein half-life in vivo [11]: 2.5 h
- total protein half-life in vivo [12]: 6.85 ± 3.4 h

Sequence: MSEMIYGIHAVQALLERAPERFQEVFILKGREDKRLLPLIHALESQGVVIQLANRQYLDEKSDGAVHQGIIARVKPGRQYQENDLPDLIASLDQPFLLILDGVTDPHNLGACLRSADAAGVHAVIVPKDRSAQLNATAKKVACGAAESVPLIRVTNLARTMRMLQEENIWIVGTAGEADHTLYQSKMTGRLALVMGAEGEGMRRLTREHCDELISIPMAGSVSSLNVSVATGICLFEAVRQRS
- total protein half-life in vivo [1]: 5.18 ± 0.29 h
- total protein half-life in vivo [2]: 4.81 ± 0.49 h
- total protein half-life in vivo [3]: 5.39 ± 0.28 h
- total protein half-life in vivo [4]: 5.55 ± 0.52 h
- total protein half-life in vivo [5]: 4.69 ± 0.23 h
- total protein half-life in vivo [6]: 2.73 ± 0.46 h
- total protein half-life in vivo [7]: 5.83 ± 0.66 h
- total protein half-life in vivo [8]: 10.3 ± 0.25 h
- total protein half-life in vivo [9]: 5.17 ± 0.15 h
- total protein half-life in vivo [10]: 9.48 ± 0.31 h
- total protein half-life in vivo [11]: 5.37 ± 0.4 h
- total protein half-life in vivo [12]: 11.5 ± 0.28 h

Sequence: MSEPLDLNQLAQKIKQWGLELGFQQVGITDTDLSESEPKLQAWLDKQYHGEMDWMARHGMLRARPHELLPGTLRVISVRMNYLPANAAFASTLKNPKLGYVSRYALGRDYHKLLRNRLKKLGEMIQQHCVSLNFRPFVDSAPILERPLAEKAGLGWTGKHSLILNREAGSFFFLGELLVDIPLPVDQPVEEGCGKCVACMTICPTGAIVEPYTVDARRCISYLTIELEGAIPEELRPLMGNRIYGCDDCQLICPWNRYSQLTTEEDFSPRKPLHAPELIELFAWSEEKFLKVTEGSAIRRIGHLRWLRNIAVALGNAPWDETILTALESRKGEHPLLDEHIAWAIAQQIERRNACIVEVQLPKKQRLVRVIEKGLPRDA
- total protein half-life in vivo [1]: 5.59 ± 0.68 h
- total protein half-life in vivo [4]: 2.85 ± 0.33 h
- total protein half-life in vivo [5]: 1.41 h
- total protein half-life in vivo [6]: > 4 h
- total protein half-life in vivo [9]: 1.85 h
- total protein half-life in vivo [12]: 3.79 h

Sequence: MSEPLLIARTPDTELFLLPGMANRHGLITGATGTGKTVTLQKLAESLSEIGVPVFMADVKGDLTGVAQAGTVSEKLLARLKNIGVNDWQPHANPVVVWDIFGEKGHPVRATVSDLGPLLLARLLNLNDVQSGVLNIIFRIADDQGLLLLDFKDLRAITQYIGDNAKSFQNQYGNISSASVGAIQRGLLSLEQQGAAHFFGEPMLDIKDWMRTDANGKGVINILSAEKLYQMPKLYAASLLWMLSELYEQLPEAGDLEKPKLVFFFDEAHLLFNDAPQVLLDKIEQVIRLIRSKGVGVWFVSQNPSDIPDNVLGQLGNRVQHALRAFTPKDQKAVKAAAQTMRANPAFDTEKAIQELGTGEALISFLDAKGSPSVVERAMVIAPCSRMGPVTEDERNGLINHSPVYGKYEDEVDRESAYEMLQKGFQASTEQQNNPPAKGKEVAVDDGILGGLKDILFGTTGPRGGKKDGVVQTMAKSAARQVTNQIVRGMLGSLLGGRRR
- total protein half-life in vivo [1]: 5.04 ± 0.57 h
- total protein half-life in vivo [2]: 4.98 ± 0.19 h
- total protein half-life in vivo [3]: 5.1 ± 0.27 h
- total protein half-life in vivo [4]: 5.07 ± 0.26 h
- total protein half-life in vivo [5]: 4.73 ± 0.25 h
- total protein half-life in vivo [6]: 3.263 ± 0.025 h
- total protein half-life in vivo [7]: 5.39 ± 0.34 h
- total protein half-life in vivo [8]: 9.77 ± 0.81 h
- total protein half-life in vivo [9]: 4.77 ± 0.15 h
- total protein half-life in vivo [10]: 8.27 ± 0.62 h
- total protein half-life in vivo [11]: 5.66 ± 0.28 h
- total protein half-life in vivo [12]: 9.88 ± 0.78 h

Sequence: MSEPMMWLLVRGVWETLAMTFVSGFFGFVIGLPVGVLLYVTRPGQIIANAKLYRTVSAIVNIFRSIPFIILLVWMIPFTRVIVGTSIGLQAAIVPLTVGAAPFIARMVENALLEIPTGLIEASRAMGATPMQIVRKVLLPEALPGLVNAATITLITLVGYSAMGGAVGAGGLGQIGYQYGYIGYNATVMNTVLVLLVILVYLIQFAGDRIVRAVTRK
- total protein half-life in vivo [1]: 6.59 h
- total protein half-life in vivo [2]: 6.5 h
- total protein half-life in vivo [3]: 6.24 h
- total protein half-life in vivo [4]: 5.881 ± 0.054 h
- total protein half-life in vivo [5]: 5.76 ± 0.38 h
- total protein half-life in vivo [6]: 3.25 ± 0.28 h
- total protein half-life in vivo [7]: 6.38 h
- total protein half-life in vivo [8]: 11.6 h
- total protein half-life in vivo [9]: 6.095 ± 0.06 h
- total protein half-life in vivo [10]: 11.6 ± 1.8 h
- total protein half-life in vivo [11]: 6.63 ± 0.78 h

Sequence: MSEQFLYFLQQMFNGVTLGSTYALIAIGYTMVYGIIGMINFAHGEVYMIGSYVSFMIIAALMMMGIDTGWLLVAAGFVGAIVIASAYGWSIERVAYRPVRNSKRLIALISAIGMSIFLQNYVSLTEGSRDVALPSLFNGQWVVGHSENFSASITTMQAVIWIVTFLAMLALTIFIRYSRMGRACRACAEDLKMASLLGINTDRVIALTFVIGAAMAAVAGVLLGQFYGVINPYIGFMAGMKAFTAAVLGGIGSIPGAMIGGLILGIAEALSSAYLSTEYKDVVSFALLILVLLVMPTGILGRPEVEKV [P0AEX7]
- total protein half-life in vivo [1]: 6.2 h
- total protein half-life in vivo [3]: > 8 h
- total protein half-life in vivo [5]: 6.44 ± 0.19 h
- total protein half-life in vivo [6]: 2.75 ± 0.53 h
- total protein half-life in vivo [9]: > 8 h
- total protein half-life in vivo [12]: > 16 h
